According to article PMC6650433, “Evolution of metazoan oxygen-sensing involved a conserved divergence of VHL affinity for HIF1α and HIF2α” (Nature Communications, 2019):
One block for each molecule: values may come before it. [ ]: non-standard residue; d: D form. The star is where a group is joined. Biotin = O=C1N[C@H]2[C@H](CS[C@H]2CCCCC(=O)*)N1; Hyp = O=C(O)[C@@H]1C[C@@H](O)CN1

What was measured:
HA-VHL30 [1] = assay: In vitro pVHL-HIFα binding (pulldown) assay, VHL WT; set-up: species or system human; conditions: 1.2 μg biotinylated peptide on streptavidin agarose beads, IVTT HA-VHL30, EBC buffer, two hours at 4 °C, anti-HA immunoblot, qualitative
Method: The in vitro pVHL-HIFα binding assay was performed as previously described. HA-VHL30 was expressed in an IVTT rabbit reticulocyte lysate system (Promega, Cat. No. L1170) and incubated with 1.2 μg of biotinylated HIFαOH peptide immobilized on streptavidin agarose beads in 500 μL of EBC buffer (50 mM Tris-HCl pH 8.0, 120 mM NaCl, 0.5% (v/v) NP-40) for two hours at 4 °C. To perform a competition binding assay, 1.8 μg of biotinylated HIFαOH peptide immobilized on streptavidin agarose beads competed with 1 μg of acetylated HIFαOH peptide. Following incubation, beads were washed 4x with NETN buffer (20 mM Tris-HCl pH 8.0, 100 mM NaCl, 1 mM EDTA, 0.5% (v/v) NP-40). Biotinylated peptide was pulled down via streptavidin agarose beads and protein was eluted by boiling beads in sample buffer. Protein levels of HA-VHL30 were determined by immunoblotting.

[2] = target: T1, VHL-elongin B-elongin C (VBC) complex (Homo sapiens, UniProt P40337+Q15369+Q15370); assay: Biolayer interferometry, VBC WT binding to immobilized HIFα peptide; conditions: VHL/HIFα binding experiments, Fig. 2b (pulldown) and Fig. 2d (BLI), in words
T1 construct: made in house
Method: The binding affinities of VBC to hydroxylated HIFα peptide was measured by biolayer interferometry using the BLItz system (Pall ForteBio). A 50 μg/mL solution of biotinylated HIFα peptide was prepared in kinetics buffer (20 mM HEPES pH 7.4, 200 mM NaCl, 1 mM DTT, 0.02% (v/v) Tween-20, and 0.5% (w/v) BSA) and immobilized onto streptavidin (SA)-coated biolayer interferometry (BLI) biosensors (Pall ForteBio, Cat. No. 18–5019) over 120 s. Multiple concentrations of purified VBC complex were diluted in kinetics buffer and allowed to associate with immobilized peptide over 120 s. Subsequently, the SA-BLI probe was immersed into kinetics buffer for 120 s to allow for dissociation. Both protein and buffer were chilled on ice immediately before use. The data were analyzed, step corrected, reference corrected, and fit to a global 1:1 binding model. Kd, ka, and kd were calculated using the BLItz Pro software. All measurements were performed in triplicate with independently purified recombinant protein.

HA-VHL30 [3] = assay: In vitro hydroxylation and co-immunoprecipitation of HIFα ODD with VHL WT; format: binding, human; conditions: IVTT 3xFLAG-HIFα ODD hydroxylated with HIS6-PHD2 (181–426) for 1 h, anti-FLAG IP, anti-HA immunoblot, compared with the WT ODD, qualitative
Method: (§1) 3xFLAG-HIFα ODD was expressed via the rabbit reticulocyte lysate system. HIFα ODD was incubated with 15 μg/μL HIS6-PHD2 (181–426) in 200 μL of 40 mM HEPES pH 7.4, 80 mM KCl, 5 mM a-ketoglutarate, 2 mM ascorbic acid, 100 μM FeCl2 tetrahydrate solution at 30 °C for 1 h. Following hydroxylation, 3xFLAG-HIFα was incubated with IVTT VHL30 in 500 μL of wash buffer (40 mM HEPES pH 7.4, 80 mM KCl, 0.05% (v/v) Tween-20, 250 μM EDTA, 1 mM DTT) supplemented with protease inhibitors for 2 h at 4 °C. Following binding, 3xFLAG-HIFα ODD was immunoprecipitated with anti-FLAG antibody immobilized on protein A beads. Protein was eluted by boiling beads in sample buffer. Protein levels of HA-VHL30 were determined by immunoblotting.

VHL F91Y = assay: In vitro hydroxylation and co-immunoprecipitation of HIFα ODD with VHL F91Y; format: binding, human; conditions: IVTT 3xFLAG-HIF1α ODD hydroxylated with HIS6-PHD2, anti-FLAG IP, anti-HA immunoblot, qualitative
Method: as §1

[4] = target: VHL-elongin B-elongin C (VBC) complex, wild type, P40337;Q15370;Q15369; assay: biolayer interferometry (BLI); conditions: chain shown with the change;, read off a plot

T1 sequence (P40337 54-213 limits assumed): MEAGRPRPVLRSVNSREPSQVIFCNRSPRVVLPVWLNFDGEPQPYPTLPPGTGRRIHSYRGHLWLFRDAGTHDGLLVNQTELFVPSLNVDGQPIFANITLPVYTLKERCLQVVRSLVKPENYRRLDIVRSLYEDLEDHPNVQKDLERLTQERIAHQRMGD
T1 sequence (Q15370 whole entry partner): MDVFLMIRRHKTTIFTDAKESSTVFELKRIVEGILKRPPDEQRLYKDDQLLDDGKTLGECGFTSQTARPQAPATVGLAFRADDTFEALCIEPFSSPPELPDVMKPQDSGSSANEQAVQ
T1 sequence (Q15369 17-112 partner limits assumed): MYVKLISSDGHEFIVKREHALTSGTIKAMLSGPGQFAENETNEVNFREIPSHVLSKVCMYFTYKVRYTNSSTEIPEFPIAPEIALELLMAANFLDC

levels of HA-VHL pulled down by immobilized biotinylated HIFαOH peptide (affinity for VHL) (HA-VHL30 [1]): further decrease in VHL affinity
Molecule: MetO2: hydroxylated HIF1α peptide, Met561 completely oxidized to methionine sulfone (MetO2)

Molecule: HIF2αOH(∆G537): hydroxylated HIF2α peptide with deletion of G537 (Biotin-ELDLETLA[Hyp]YIPMDEDFQ-NH2; SMILES CC[C@H](C)[C@H](NC(=O)[C@H](Cc1ccc(O)cc1)NC(=O)[C@@H]1C[C@@H](O)CN1C(=O)[C@H](C)NC(=O)[C@H](CC(C)C)NC(=O)[C@@H](NC(=O)[C@H](CCC(=O)O)NC(=O)[C@H](CC(C)C)NC(=O)[C@H](CC(=O)O)NC(=O)[C@H](CC(C)C)NC(=O)[C@H](CCC(=O)O)NC(=O)CCCC[C@@H]1SC[C@@H]2NC(=O)N[C@@H]21)[C@@H](C)O)C(=O)N1CCC[C@H]1C(=O)N[C@@H](CCSC)C(=O)N[C@@H](CC(=O)O)C(=O)N[C@@H](CCC(=O)O)C(=O)N[C@@H](CC(=O)O)C(=O)N[C@@H](Cc1ccccc1)C(=O)N[C@@H](CCC(N)=O)C(N)=O)
levels of HA-VHL pulled down by immobilized biotinylated HIFαOH peptide (affinity for VHL) (HA-VHL30 [1]): minor decrease in affinity for VHL

Molecule: HIF2α T528M: hydroxylated HIF2α peptide with T528M substitution (Biotin-ELDLEMLA[Hyp]YIPMDGEDFQ-NH2; SMILES CC[C@H](C)[C@H](NC(=O)[C@H](Cc1ccc(O)cc1)NC(=O)[C@@H]1C[C@@H](O)CN1C(=O)[C@H](C)NC(=O)[C@H](CC(C)C)NC(=O)[C@H](CCSC)NC(=O)[C@H](CCC(=O)O)NC(=O)[C@H](CC(C)C)NC(=O)[C@H](CC(=O)O)NC(=O)[C@H](CC(C)C)NC(=O)[C@H](CCC(=O)O)NC(=O)CCCC[C@@H]1SC[C@@H]2NC(=O)N[C@@H]21)C(=O)N1CCC[C@H]1C(=O)N[C@@H](CCSC)C(=O)N[C@@H](CC(=O)O)C(=O)NCC(=O)N[C@@H](CCC(=O)O)C(=O)N[C@@H](CC(=O)O)C(=O)N[C@@H](Cc1ccccc1)C(=O)N[C@@H](CCC(N)=O)C(N)=O)
levels of HA-VHL pulled down by immobilized biotinylated HIFαOH peptide (affinity for VHL) (HA-VHL30 [1]): increased affinity for VHL

levels of HA-VHL pulled down by immobilized biotinylated HIFαOH peptide (affinity for VHL) (HA-VHL30 [1]): did not affect the affinity
Molecule: NLE-substituted HIF1α: hydroxylated HIF1α peptide, Met561 substituted with norleucine

Molecule: HIF1αOH(D570delinsGE): hydroxylated HIF1α peptide with insertion of Glyn+6 to mimic HIF2α (Biotin-DLDLEMLA[Hyp]YIPMDGDDFQ-NH2; SMILES CC[C@H](C)[C@H](NC(=O)[C@H](Cc1ccc(O)cc1)NC(=O)[C@@H]1C[C@@H](O)CN1C(=O)[C@H](C)NC(=O)[C@H](CC(C)C)NC(=O)[C@H](CCSC)NC(=O)[C@H](CCC(=O)O)NC(=O)[C@H](CC(C)C)NC(=O)[C@H](CC(=O)O)NC(=O)[C@H](CC(C)C)NC(=O)[C@H](CC(=O)O)NC(=O)CCCC[C@@H]1SC[C@@H]2NC(=O)N[C@@H]21)C(=O)N1CCC[C@H]1C(=O)N[C@@H](CCSC)C(=O)N[C@@H](CC(=O)O)C(=O)NCC(=O)N[C@@H](CC(=O)O)C(=O)N[C@@H](CC(=O)O)C(=O)N[C@@H](Cc1ccccc1)C(=O)N[C@@H](CCC(N)=O)C(N)=O)
VHL/HIFα complex stability [2]: does not overtly modulate complex stability

Molecule: Bio-HIF1αOH(M561A): hydroxylated HIF1α peptide, Met561 substituted with alanine (Biotin-DLDLEALA[Hyp]YIPMDDDFQ-NH2; SMILES CC[C@H](C)[C@H](NC(=O)[C@H](Cc1ccc(O)cc1)NC(=O)[C@@H]1C[C@@H](O)CN1C(=O)[C@H](C)NC(=O)[C@H](CC(C)C)NC(=O)[C@H](C)NC(=O)[C@H](CCC(=O)O)NC(=O)[C@H](CC(C)C)NC(=O)[C@H](CC(=O)O)NC(=O)[C@H](CC(C)C)NC(=O)[C@H](CC(=O)O)NC(=O)CCCC[C@@H]1SC[C@@H]2NC(=O)N[C@@H]21)C(=O)N1CCC[C@H]1C(=O)N[C@@H](CCSC)C(=O)N[C@@H](CC(=O)O)C(=O)N[C@@H](CC(=O)O)C(=O)N[C@@H](CC(=O)O)C(=O)N[C@@H](Cc1ccccc1)C(=O)N[C@@H](CCC(N)=O)C(N)=O)
levels of HA-VHL pulled down by immobilized biotinylated HIFαOH peptide (affinity for VHL) (HA-VHL30 [1]): decreased affinity for pVHL

B1: HIF2α ODD T528M: IVTT 3xFLAG-HIF2α(390–554) ODD protein with T528M substitution (protein, UniProt Q99814 390-554, looked up, fragment T528M)
chain: FTKLKEEPEELAQLAPTPGDAIISLDFGNQNFEESSAYGKAILPPSQPWATELRSHSTQSEAGSLPAFTVPQAAAPGSTTPSATSSSSSCSTPNSPEDYYTSLDNDLKIEVIEKLFAMDTEAKDQCSTQTDFNELDLEMLAPYIPMDGEDFQLSPICPEERLLAE
modifications: ODD 3xFLAG tag
notes: IVTT 3xFLAG-HIF2α(390–554) ODD protein with T528M substitution
affinity of HIFα ODD protein for VHL (HA-VHL co-immunoprecipitated) (HA-VHL30 [3]): increased the affinity

B2: HIF1α ODD M561T: IVTT 3xFLAG-HIF1α ODD (387–581) with M561T substitution (protein)
chain: FDKLKKEPDALTLLAPAAGDTIISLDFGSNDTETDDQQLEEVPLYNDVMLPSPNEKLQNINLAMSPLPTAETPKPLRSSADPALNQEVALKLEPNPESLELSFTMPQIQDQTPSPSDGSTRQSSPEPNSPSEYCFYVDSDMVNEFKLELVEKLFAEDTEAKNPFSTQDTDLDLETLAPYIPMDDDFQLRSFDQLS
modifications: hydroxylated in vitro by HIS6-PHD2 (181–426) for one hour before the binding; left off: 3xFLAG, end not stated, kept
notes: IVTT 3xFLAG-HIF1α ODD (387–581) with M561T substitution
HIFα ODD bound by VHL F91Y, compared with VHL WT (VHL F91Y): bound less
affinity of HIFα ODD protein for VHL (HA-VHL co-immunoprecipitated) (HA-VHL30 [3]): decreased affinity

B3: HIF1αODD WT: IVTT 3xFLAG-tagged HIF1α oxygen-dependent degradation domain (387–581), wild type (protein)
chain: FDKLKKEPDALTLLAPAAGDTIISLDFGSNDTETDDQQLEEVPLYNDVMLPSPNEKLQNINLAMSPLPTAETPKPLRSSADPALNQEVALKLEPNPESLELSFTMPQIQDQTPSPSDGSTRQSSPEPNSPSEYCFYVDSDMVNEFKLELVEKLFAEDTEAKNPFSTQDTDLDLEMLAPYIPMDDDFQLRSFDQLS
modifications: hydroxylated in vitro by HIS6-PHD2 (181–426) for one hour before the binding; left off: 3xFLAG, end not stated, kept
notes: IVTT 3xFLAG-tagged HIF1α oxygen-dependent degradation domain (387–581), wild type
HIFα ODD bound by VHL F91Y, compared with VHL WT (VHL F91Y): bound less

koff ([4]; parent: est. 0.0075 s-1): 0.011 s⁻¹
koff ([4]; parent: est. 0.0078): 0.011 s⁻¹
Molecule: ELDLETLAPYIPMDEDFQ [hydroxylated HIF2α peptide (523–541), biotinylated G537del]
